Results: patent publication US20220332804A1 (CSL INNOVATION, published 2022)

Columns and labels:
Assay in all cases: SPR, antibody captured, C2 as analyte;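 further: biacore SPR at 37 °C, anti-C2 mAbs captured via goat anti-human IgG on CM5 chips, double-referenced sensorgrams fit to a 1:1 kinetic or steady-state model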
human C2 V448A = biological target: T1, human C2 V448A (human, UniProt P06681 21-752)
T1 sequence: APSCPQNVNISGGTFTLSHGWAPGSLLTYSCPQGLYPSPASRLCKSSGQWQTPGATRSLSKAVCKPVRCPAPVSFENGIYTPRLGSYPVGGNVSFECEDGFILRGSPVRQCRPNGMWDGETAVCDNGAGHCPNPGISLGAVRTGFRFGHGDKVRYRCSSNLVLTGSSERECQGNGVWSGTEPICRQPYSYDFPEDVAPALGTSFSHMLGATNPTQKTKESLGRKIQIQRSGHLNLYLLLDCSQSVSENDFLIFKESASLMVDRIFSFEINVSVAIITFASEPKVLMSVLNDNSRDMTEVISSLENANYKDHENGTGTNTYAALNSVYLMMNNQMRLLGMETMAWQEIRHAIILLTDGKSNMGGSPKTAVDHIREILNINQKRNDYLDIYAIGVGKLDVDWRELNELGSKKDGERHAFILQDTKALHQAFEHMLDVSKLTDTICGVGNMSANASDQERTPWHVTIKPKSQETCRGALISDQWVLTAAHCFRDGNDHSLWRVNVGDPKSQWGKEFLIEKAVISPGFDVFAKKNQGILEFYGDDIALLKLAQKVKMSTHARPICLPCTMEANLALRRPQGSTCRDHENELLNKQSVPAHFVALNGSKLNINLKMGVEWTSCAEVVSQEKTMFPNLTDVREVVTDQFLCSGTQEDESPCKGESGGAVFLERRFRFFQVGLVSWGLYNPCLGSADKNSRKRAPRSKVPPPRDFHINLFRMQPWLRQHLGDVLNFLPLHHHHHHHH

human C2 D404A = biological target: T2, human C2 D404A (human, UniProt P06681 21-752)
T2 sequence: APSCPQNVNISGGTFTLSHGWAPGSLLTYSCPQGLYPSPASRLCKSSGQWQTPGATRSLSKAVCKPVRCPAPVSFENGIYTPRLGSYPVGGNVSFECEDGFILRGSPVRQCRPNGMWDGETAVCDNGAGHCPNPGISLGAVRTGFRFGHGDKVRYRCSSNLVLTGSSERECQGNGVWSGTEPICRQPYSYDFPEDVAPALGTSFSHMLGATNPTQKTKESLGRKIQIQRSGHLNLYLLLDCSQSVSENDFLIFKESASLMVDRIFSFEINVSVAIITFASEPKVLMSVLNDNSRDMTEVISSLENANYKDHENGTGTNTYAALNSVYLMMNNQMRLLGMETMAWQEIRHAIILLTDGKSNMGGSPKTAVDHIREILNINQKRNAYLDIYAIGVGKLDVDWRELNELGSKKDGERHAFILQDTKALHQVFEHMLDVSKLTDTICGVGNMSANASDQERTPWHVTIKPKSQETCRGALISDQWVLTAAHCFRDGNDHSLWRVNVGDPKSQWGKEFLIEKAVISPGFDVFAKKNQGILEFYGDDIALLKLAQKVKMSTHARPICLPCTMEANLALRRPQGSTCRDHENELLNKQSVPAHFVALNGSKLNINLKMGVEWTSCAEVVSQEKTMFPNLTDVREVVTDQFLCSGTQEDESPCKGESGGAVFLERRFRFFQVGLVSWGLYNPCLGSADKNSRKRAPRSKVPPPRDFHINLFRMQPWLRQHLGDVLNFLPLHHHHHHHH

human C2 S456A = biological target: T3, human C2 S456A (human, UniProt P06681 21-752)
T3 sequence: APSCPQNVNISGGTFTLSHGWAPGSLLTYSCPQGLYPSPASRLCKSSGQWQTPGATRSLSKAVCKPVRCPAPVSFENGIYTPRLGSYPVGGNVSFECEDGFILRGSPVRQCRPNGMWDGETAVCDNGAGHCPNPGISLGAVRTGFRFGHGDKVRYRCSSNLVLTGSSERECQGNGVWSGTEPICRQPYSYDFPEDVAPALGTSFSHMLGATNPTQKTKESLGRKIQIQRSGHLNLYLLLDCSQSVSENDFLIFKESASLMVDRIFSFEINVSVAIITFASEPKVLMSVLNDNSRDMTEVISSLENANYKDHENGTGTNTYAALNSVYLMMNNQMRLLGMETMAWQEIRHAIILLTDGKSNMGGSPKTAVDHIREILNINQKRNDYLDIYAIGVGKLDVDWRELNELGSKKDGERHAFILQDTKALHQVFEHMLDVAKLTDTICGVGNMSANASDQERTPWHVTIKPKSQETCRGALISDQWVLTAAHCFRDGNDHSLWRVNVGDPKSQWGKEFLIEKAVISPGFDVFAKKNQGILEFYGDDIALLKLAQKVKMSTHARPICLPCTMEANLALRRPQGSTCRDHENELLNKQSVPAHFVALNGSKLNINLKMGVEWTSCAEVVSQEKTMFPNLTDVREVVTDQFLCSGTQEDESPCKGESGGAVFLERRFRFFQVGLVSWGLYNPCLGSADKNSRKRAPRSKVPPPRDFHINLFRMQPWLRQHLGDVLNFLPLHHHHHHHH

human C2 D431A = biological target: T4, human C2 D431A (human, UniProt P06681 21-752)
T4 sequence: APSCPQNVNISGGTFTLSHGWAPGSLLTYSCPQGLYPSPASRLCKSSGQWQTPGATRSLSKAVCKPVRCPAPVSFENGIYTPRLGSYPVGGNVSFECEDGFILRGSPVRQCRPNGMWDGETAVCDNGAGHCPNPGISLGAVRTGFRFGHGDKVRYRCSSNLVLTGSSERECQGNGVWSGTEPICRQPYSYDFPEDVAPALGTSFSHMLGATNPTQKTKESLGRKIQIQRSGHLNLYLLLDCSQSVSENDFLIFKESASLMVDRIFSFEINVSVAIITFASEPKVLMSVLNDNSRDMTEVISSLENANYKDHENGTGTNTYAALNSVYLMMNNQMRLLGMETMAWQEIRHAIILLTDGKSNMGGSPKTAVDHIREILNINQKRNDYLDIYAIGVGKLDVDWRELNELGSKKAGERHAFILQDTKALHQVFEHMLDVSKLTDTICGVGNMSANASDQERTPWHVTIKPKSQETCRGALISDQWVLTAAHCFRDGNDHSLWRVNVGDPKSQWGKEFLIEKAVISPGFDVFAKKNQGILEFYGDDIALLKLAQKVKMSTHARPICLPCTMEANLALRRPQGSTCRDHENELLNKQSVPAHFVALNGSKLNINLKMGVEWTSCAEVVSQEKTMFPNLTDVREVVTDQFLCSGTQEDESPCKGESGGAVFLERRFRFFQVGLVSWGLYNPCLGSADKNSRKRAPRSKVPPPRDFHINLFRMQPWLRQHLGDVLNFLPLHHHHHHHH

B1: RF16-226 (antibody, human IgG4 S228P, lambda)
heavy: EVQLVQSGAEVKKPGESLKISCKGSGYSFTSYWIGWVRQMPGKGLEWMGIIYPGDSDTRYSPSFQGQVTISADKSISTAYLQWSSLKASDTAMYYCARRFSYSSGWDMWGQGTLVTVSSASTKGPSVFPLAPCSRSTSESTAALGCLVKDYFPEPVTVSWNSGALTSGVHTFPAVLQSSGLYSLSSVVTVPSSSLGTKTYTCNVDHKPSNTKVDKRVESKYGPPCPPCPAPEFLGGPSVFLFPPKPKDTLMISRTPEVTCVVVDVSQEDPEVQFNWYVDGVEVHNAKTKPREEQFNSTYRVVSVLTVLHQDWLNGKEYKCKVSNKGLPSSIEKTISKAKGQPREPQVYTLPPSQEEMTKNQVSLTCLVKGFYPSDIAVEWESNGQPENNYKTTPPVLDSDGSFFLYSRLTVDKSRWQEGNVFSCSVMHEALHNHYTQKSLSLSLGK
light: SYELTQPPSVSVSPGQTARITCSGDALTSKYVAWYQQKSGLAPLLVIYEDTRRPSGIPAKFSGSSSGSVATLTISGAHGDDEADYYCYSTDASGHQRVFGGGTKLTVLSQPKAAPSVTLFPPSSEELQANKATLVCLISDFYPGAVTVAWKADGSPVKAGVETTKPSKQSNNKYAASSYLSLTPEQWKSHRSYSCQVTHEGSTVEKTVAPTECS
notes: pH-dependent anti-C2 antibody from a phage display library; also called WT
Kd (human C2 V448A): 4.4 nM
Kd (human C2 D404A): 12.8 nM
Kd (human C2 S456A): 71.8 nM
Kd (human C2 D431A): 43.4 nM
